Results as given in PMC6893557 (2019).

Biological target: pYEEI
Experiment: SPR

B1: Hck SH2 (protein)
chain: WFFKGISRKDAERQLLAPGNMLGSFMIRDSETTKGSYSLSVRDYDPRQGDTVKHYKIRTLDNGGFYISPRSTFSTLQELVDHYKKGNDGLCQKLSVPC
Binder B1 has a Kd of 42 µM.
